From patent US20210230254A1 (published 2021)
Where two headings read alike, the source gives them in different places.

B1: 8ANC50 (antibody, V domains shown)
VH: QGQLVQSGGGVKKPGTSVTISCLASEYTFTEFTIHWIRQAPGQGPLWLGLIKRSGRLMTAYRFQDRLSLRRDRSTGTVFMELRNLRMDDTAVYYCARDGLGELAPAYQYGIDVWGQGTTVIVSS
VL: EIVLTQSPTTLSLSPGERATLSCRASQGVNLVVWYQQKRGQAPRLLIYGPSDRAPGVPDRFSARGSGTEFSLVISSVEPDDFALYYCQEYSSTPYNFGTGTRVDRKR
notes: also called 8ANC50HC; 8ANC50KC
B2: 8ANC131 (antibody, V domains shown)
VH: QGQLVQSGGGLKKPGTSVTISCLASEYTFNEFVIHWIRQAPGQGPLWLGLIKRSGRLMTAYNFQDRLRLRRDRSTGTVFMELRGLRPDDTAVYYCARDGLGEVAPDYRYGIDVWGQGSTVIVTA
VL: EIVLTQSPATLSLSPGERATLSCRASQGLNFVVWYQQKRGQAPRLLIHAPSGRAPGVPDRFSARGSGTEFSLVISSVEPDDFAIYYCQEYSSTPYNFGPGTRVDRKR
notes: also called 8ANC131HC; 8ANC131KC
B3: 8ANC134 (antibody, V domains shown)
VH: QGQLVQSGGGVKKPGTSVTISCLASEYTFNEFVIHWIRQAPGQGPVWLGLIKRSGRLMTSYKFQDRLSLRRDRSTGTVFMELRGLRLDDTAVYYCARDGLGEVAPAYLYGIDAWGQGSTVIVTS
VL: EIVLTQSPATLSLSPGERATLSCRASQGLNFVVWYQQKGGQAPRLLIHGPTDRAPGVPDRFSARGSGTEFSLVISSVEPDDFALYYCQEYSSTPYNFGPGTRVDRKR
notes: also called 8ANC134HC; 8ANC134KC
B4: 8ANC195 (antibody, V domains shown)
VH: QIHLVQSGTEVKKPGSSVTVSCKAYGVNTFGLYAVNWVRQAPGQSLEYIGQIWRWKSSASHHFRGRVLISAVDLTGSSPPISSLEIKNLTSDDTAVYFCTTTSTYDKWSGLHHDGVMAFSSWGQGTLISVSA
VL: DIQMTQSPSTLAASIGGTVRVSCRASQSITGNWVAWYQQRPGKAPRLLIYRGAALLGGVPSRFSGSAAGTDFTLTIGNLQAEDFGTFYCQQYDTYPGTFGQGTKVEVKR
notes: also called 8ANC195HC; 8ANC195KC
B5: 3BNC60 (antibody, V domains shown)
VH: QVHLSQSGAAVTKPGASVRVSCEASGYKISDHFIHWWRQAPGQGLQWVGWINPKTGQPNNPRQFQGRVSLTRQASWDFDTYSFYMDLKAVRSDDTAIYFCARQRSDFWDFDVWGSGTQVTVSSASTKG
VL: DIQMTQSPSSLSARVGDTVTITCQANGYLNWYQQRRGKAPKLLIYDGSKLERGVPARFSGRRWGQEYNLTINNLQPEDVATYFCQVYEFIVPGTRLDLKRTVAA
notes: also called 3BNC60HC; 3BNC60KC
B6: 3BNC117 (antibody, V domains shown)
VH: QVQLLQSGAAVTKPGASVRVSCEASGYNIRDYFIHWWRQAPGQGLQWVGWINPKTGQPNNPRQFQGRVSLTRHASWDFDTFSFYMDLKALRSDDTAVYFCARQRSDYWDFDVWGSGTQVTVSSASTKG
VL: DIQMTQSPSSLSASVGDTVTITCQANGYLNWYQQRRGKAPKLLIYDGSKLERGVPSRFSGRRWGQEYNLTINNLQPEDIATYFCQVYEFVVPGTRLDLKRTVAAPSVFIFPPSD
notes: also called 3BNC117HC; 3bnc117kc
B7: 1B2530 (antibody, V domains shown)
VH: QVRLEQSGAAMRKPGASVTLSCQASGYNFVKYIIHWVRQKPGLGFEWVGMIDPYRGRPWSAHKFQGRLSLSRDTSMEILYMTLTSLKSDDTATYFCARAEAASDSHSRPIMFDHWGQGSRVTVSS
VL: QSALTQPPSASGAPGQRVTISCSGGPSNVGGNYVYWYRQFPGTAPTLLILRDDQRPSGVPDRFSASKSGNSASLAISGLRPDDEGFYFCATYDSDGSIRLFGGGTALTVLS
notes: also called LSSB2530HC; LSSB2530LC
B8: 8ANC14 (antibody, V domains shown)
VH: QVQLVQSGAEVKKPGASVKVSCKVSGYTLTELSIHWVRQAPGKGLEWMGGFDSEDGEAFYKQNFQGRVTMTEDTSTDTAYMELRRLRSEDTAVYYCATADRFKVAQDEGLFVIFDYWGQGTLVTVSS
VL: EIVLTQSPATLSLSPGERATLSCRASQSINNYLAWYQQKPGQAPRLLIYDASNRATGIPARFSGGGSGTDFTLTISSLEPEDFAVYYCQQRANWRLLTFGGGTKVEIKR
notes: also called 8ANC14HC; 8ANC14KC
B9: 12A12 (antibody, V domains shown)
VH: SQQLVQSGTQVKKPGASVRISCQASGYSFTDYVLHWWRQAPGQGLEWMGWIKPVYGARNYARRFQGRINFDRDIYREIAFMDLSGLRSDDTALYFCARDGSGDDTSWHLDPWGQGTLVIVSA
VL: DIQMTQSPSSLSASVGDRVTITCQAGQGIGSSLQWYQQKPGKAPKLLVHGASNLHRGVPSRFSGSGFHTTFSLTISGLQRDDFATYFCAVLEFFGPGTKVEIKR
notes: also called 12A12HC; 12a12kc
B10: 1NC9 (antibody, V domains shown)
VH: QVRLVQSGAQLKKPGASVTVSCEASGYNFVNYIINWVRQTPGRSFEWVGMIDPRRGRPWSAQKFQGRLTLTRDIDSEKLYMHLSGLRGDDTAVYYCARQDSDFHDGHGHTLRGMFDSWGQGSPVTVSS
VL: QVLSVSGTPGQRVIISCSGTSSNVGGNLVSWYQHLPGAAPRLLIHRDDQRPSGVPDRFSGSKSGNSASLVISGLRSDDEADYFCAAYDSTFSLPVFGGGTRLTVLS
notes: also called LSSNEC9HC; LSSNEC9LC
B11: 3B41 (antibody, V domains shown)
VH: EVQLVQSGAEVKKPGASVKVSCKVSGYTLTELSMHWVRQAPGKGLEWMGVFDPLEGDGVYAEKFRGRVIMTEDTSTDTGYMELTSLRSEDTAIYYCATKAKDYYYESSDYSPYYYYYMDVWGKGTTVTVSS
VL: EIVLTQSPGTLSLSPGERATLSCRASQSVSSNYLAWYQQKPGQAPRLLIYGASSRATGIPDRFSGSGSGTDFTLSISRLEPEDFAVYYCQQYGTSSCTFGQGTKLEIKR
notes: also called 3B41HC; 3b41kc
B12: 12A21 (antibody, V domains shown)
VH: SQHLVQSGTQVKKPGASVRVSCQASGYTFTNYILHWWRQAPGQGLEWMGLIKPVFGAVNYARQFQGRIQLTRDIYREIAFLDLSGLRSDDTAVYYCARDESGDDLKWHLHPWGQGTQVIVSP
VL: DIQMTQSPSSLSASVGDRVTINCQAGQGIGSSLNWYQKKPGRAPKLLVHGASNLQRGVPSRFSGSGFHTTFTLTISSLQPDDVATYFCAVFQWFGPGTKVDIKR
notes: also called 12A21HC; 12a21kc
B13: 8ANC24 (antibody, V domains shown)
VH: QVQLVQSGAEVKMPGASVKVSCKVSGYSLTELSIHWVRQAPGKRLEWMGGFDPEDDERIYAQKFQDRVTMTEDTSTDTAYMDLNSLRSEDTAVYYCTTGGLYCSSISCIMDVWGQGTTVIVSS
VL: EIVMTQSPATLSMSPGERATLSCRASLSVNTNLAWYQQKPGQAPRLLIYGASTRATGIPARFSGSGSGTEFTLTISSLQSEDFALYYCQQYNHWPQTFGQGTKVEIKR
notes: also called 8ANC24HC; 8ANC24KC
B14: 3B27 (antibody, V domains shown)
VH: EVQLVESGGGLVQPGGSLRISCSATGFTFSTHAMHWVRQAPGKGLEYVSAINSNGRSAFYADSVKGRVTISRDNSKNTLFLQMTSLRAEDTAVYYCVKGPLLRYLDSWGQGTLVTVSS
VL: EIVLTQSPATLSVSPGERATLSCRAGQSVSSDLAWYQHKPGQAPRLLIYDASKRATGIPARFSGSGSGTDFTLTISSLEPEDFAVYYCQHRTNWPPSITFGQGTRLEIKR
notes: also called 3B27HC; 3b27kc
B15: NIH45-46 (antibody, V domains shown)
VH: QVRLSQSGGQMKKPGESMRLSCRASGYEFLNCPINWIRLAPGRRPEWMGWLKPRGGAVNYARKFQGRVTMTRDVYSDTAFLELRSLTSDDTAVYFCTRGKYCTARDYYNWDFEH
VL: EIVLTQSPATLSLSPGETAIISCRTSQSGSLAWYQQRPGQAPRLVIYSGSTRAAGIPDRFSGSRWGADYNLSISNLESGDFGVYYCQQYEFFG
B16: 3BNC55 (antibody, V domains shown)
VH: QVQLVQSGTAVKRPGASVRVSCQASGYTFTDYFIYWWRQAPGQGLEWLGWINPLTSQPSYPSRFQGRLTLTRDTFDEMLYMDLRGLRSDDTGIYFCARRHSDYCDFDIWGSGTQIIVSS
VL: DIQMTQSPSSLSASVGDKVTITCQTSAGYLNWYQQRRGRAPKLLMYDGSRLVTGVPSRFSGRRWGTQYNLTIGSLQPEDIATYYCQVYEFFGPGTRLDLKS
notes: also called 3BNC55HC; 3BNC55KC
B17: 3BNC66 (antibody, V domains shown)
VH: QVQLVQSGAALKKPGASLRISCQTYGYKFTDHLIYWWRQAPGQGLEWIGWIKPETGQPSYSYRFQGRVSLTRDTFEEIAFMDLRGLRSDDTAIYFCARRHTDYCVFDVWGSGSQIIVSS
VL: DIQMTQSPSSLSASVGDTVTITCQTNKGYLNWYQQRRGRAPKLLMYDGSKLVTGVPSRLSGRRWGTQYNLTIGSLQPEDIATYYCQVYEFFGPGTRLDLKR
notes: also called 3BNC66HC; 3bnc66kc
B18: 3BNC156 (antibody, V domains shown)
VH: QVQLVQSGAALKKPGASLRISCQTYGYKFTDHLIYWWRQAPGQGLEWIGWIKPETGQPSYSYRFQGRVSLTRDTFEEIVFMDLRGLRSDDTAIYFCARRHSDYCDFDVWGGGSQVIVSS
VL: DIQMTQSPSSLSASVGDTVTITCQTNKGYLNWYQQKRGRAPKLLMYDGSKLVTGVPSRLSGRRWGTQYNLTIGSLQPEDIATYYCQVYEFFGPGTRLDLKR
notes: also called 3BNC156HC; 3bnc156kc
B19: 8ANC5 (antibody, V domains shown)
VH: QVQLVQSGAEVRKPGSSLKVSCKSSGGTFSRFVVNWVRQAPGQGLEWMGGMIPIFGIAKYAQKFQDRVTMTADESKNTVYLDFSSLRSDDTAVYYCARDRGDTRLLDYGDYEDERYYYGMDVWGQGTTVIVSS
VL: DIQMTQSPPSLSASVGDRVTITCQASQDINNFLNWYQQKPGKAPRLLIYDASNLESGVSSRFSGSRSGTDFTLTISSLLPEDIATYSCQQYSNLPYTFSQGTKLEIKR
notes: also called 8ANC5HC; 8ANC5KC

Key:
YU2 gp120 [1] = biological target: T1, YU2 gp120 (HIV-1 YU2, UniProt P35961 32-498); assay: ELISA, column Binding
T1 construct: domain: gp120
Procedure: (§1) ELISAs. […] After washing, plates were blocked 2 h with 2% BSA, 1 μM EDTA, 0.05% Tween-PBS (Blocking buffer) and then, incubated 2h with IgG antibodies diluted at 4 μg/ml and several consecutive 1:4 dilutions in PBS. After washing, the plates were developed by incubation for 1 h with goat HRP-conjugated anti-mouse IgG (Jackson ImmunoReseach) (at 0.8 μg/ml in blocking buffer) and by adding 100 μl of HRP chromogenic substrate (ABTS solution, Invitrogen). […] Background values given by incubation of PBS alone in coated wells were subtracted. […] Threshold values for reactivity were determined by using control antibodies mGO53 (negative), eiJB40 (low positive), and ED38 (high positive).

YU-2 gp140 [2] = biological target: T2, YU-2 gp140 (HIV-1 YU2, UniProt P35961 32-670); assay: SPR, gp140 on chip, IgG injected
T2 construct: domain: gp140; also called YU2 gp140 trimer

YU2 gp120 [3] = biological target: T1, YU2 gp120; assay: ELISA, column Binding; remark: listed apart in the source
Procedure: as §1

YU-2 gp140 [4] = biological target: T2, YU-2 gp140; assay: SPR, gp140 on chip, IgG injected; minus sign of the exponent missing in print (kd/ka gives 3.75e-12)

| Binder | binding result (YU2 gp120 [1]) | Kd (YU-2 gp140 [2]) | koff (YU-2 gp140 [2]) | kon (YU-2 gp140 [2]) | binding result (YU2 gp120 [3]) | Kd (YU-2 gp140 [4]) |
| --- | --- | --- | --- | --- | --- | --- |
| B1 | binds |  |  |  |  |  |
| B2 |  | 16.5 nM | 0.00109 s⁻¹ | 65900 M⁻¹ s⁻¹ |  |  |
| B3 |  | 113 nM | 0.00174 s⁻¹ | 15500 M⁻¹ s⁻¹ |  |  |
| B4 |  | 34.3 nM | 0.00167 s⁻¹ | 48800 M⁻¹ s⁻¹ |  |  |
| B5 |  | 6.81 nM | 0.000186 s⁻¹ | 27300 M⁻¹ s⁻¹ |  |  |
| B6 |  | 6.54 nM | 0.000199 s⁻¹ | 30400 M⁻¹ s⁻¹ |  |  |
| B7 |  | 34.2 nM | 0.00162 s⁻¹ | 47400 M⁻¹ s⁻¹ |  |  |
| B8 | binds |  |  |  |  |  |
| B9 |  | 0.315 nM | 1.44e-05 s⁻¹ | 45900 M⁻¹ s⁻¹ |  |  |
| B10 |  | 12 nM | 0.000581 s⁻¹ | 48300 M⁻¹ s⁻¹ |  |  |
| B11 |  |  |  |  | binds |  |
| B12 |  |  | 3.44e-07 s⁻¹ | 91800 M⁻¹ s⁻¹ |  | 3.75 pM |
| B13 | binds |  |  |  |  |  |
| B14 |  |  |  |  | binds |  |
| B15 |  | 6.75 nM | 0.000287 s⁻¹ | 42600 M⁻¹ s⁻¹ |  |  |
| B16 |  | 57.8 nM | 0.000755 s⁻¹ | 13100 M⁻¹ s⁻¹ |  |  |
| B17 |  | 88.1 nM | 0.00141 s⁻¹ | 16000 M⁻¹ s⁻¹ |  |  |
| B18 |  | 175 nM | 0.00198 s⁻¹ | 11300 M⁻¹ s⁻¹ |  |  |
| B19 | binds |  |  |  |  |  |
